Data set [1] deals with T1, SSB (Saccharolobus solfataricus, UniProt Q97W73 1-148).
T1 sequence: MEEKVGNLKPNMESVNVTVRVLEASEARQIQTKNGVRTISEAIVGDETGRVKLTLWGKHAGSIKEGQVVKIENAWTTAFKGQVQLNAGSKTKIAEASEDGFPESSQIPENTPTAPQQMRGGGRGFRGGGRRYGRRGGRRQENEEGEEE
Nature of the data set: EMSA; with NurA/HerA: SSB binding strongly stimulated; EMSA: 5 pmol fluorescent DNA in 10 ul, 20 mM HEPES/NaOH pH 7.5, 35 mM beta-mercaptoethanol, 500 mM NaCl, 50 mM MgCl2 (so in the source), 10 min room temperature, 5% PAGE in 0.5x TBE. To be noted: protein: recombinant. For orientation: Mobility shift assays separate free from complexed probe on a gel.

Data set [2] has as its target T2, HerA (Saccharolobus solfataricus, UniProt Q97WG8 1-500).
T2 sequence: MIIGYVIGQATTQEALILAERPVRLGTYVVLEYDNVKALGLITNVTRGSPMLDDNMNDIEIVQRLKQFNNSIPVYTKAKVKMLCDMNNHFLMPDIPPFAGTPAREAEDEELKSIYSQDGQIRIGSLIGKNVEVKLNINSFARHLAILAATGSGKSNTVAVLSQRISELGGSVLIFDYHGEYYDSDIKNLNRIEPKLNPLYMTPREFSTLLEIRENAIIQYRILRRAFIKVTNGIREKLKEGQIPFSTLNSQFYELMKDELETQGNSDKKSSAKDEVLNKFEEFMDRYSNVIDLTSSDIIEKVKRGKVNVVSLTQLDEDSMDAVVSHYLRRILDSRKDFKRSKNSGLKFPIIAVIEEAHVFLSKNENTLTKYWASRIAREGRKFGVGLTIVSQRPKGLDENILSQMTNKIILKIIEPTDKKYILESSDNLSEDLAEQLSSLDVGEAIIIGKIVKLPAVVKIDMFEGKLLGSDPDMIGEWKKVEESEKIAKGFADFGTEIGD
Put plainly: EMSA; in NurA/HerA with SSB: HerA binding not reduced on fork; EMSA: 5 pmol fluorescent DNA in 10 ul, 20 mM HEPES/NaOH pH 7.5, 35 mM beta-mercaptoethanol, 500 mM NaCl, 50 mM MgCl2 (so in the source), 10 min room temperature, 5% PAGE in 0.5x TBE. The note with it: protein: recombinant; chain copies: 6; fork 1:2; 50 bp duplex, unpaired 5' T20 of strand 1 and 3' 20 nt of strand 2.

The target in data set [3] is T2, HerA. Nature of the data set: EMSA; HerA alone, increasing amounts; EMSA: 5 pmol fluorescent DNA in 10 ul, 20 mM HEPES/NaOH pH 7.5, 35 mM beta-mercaptoethanol, 500 mM NaCl, 50 mM MgCl2 (so in the source), 10 min room temperature, 5% PAGE in 0.5x TBE. The note with it: protein: recombinant; chain copies: 6; single strand.
The target in data set [4] is T3, NurA (Saccharolobus solfataricus, UniProt Q97WH1 1-339).
T3 sequence: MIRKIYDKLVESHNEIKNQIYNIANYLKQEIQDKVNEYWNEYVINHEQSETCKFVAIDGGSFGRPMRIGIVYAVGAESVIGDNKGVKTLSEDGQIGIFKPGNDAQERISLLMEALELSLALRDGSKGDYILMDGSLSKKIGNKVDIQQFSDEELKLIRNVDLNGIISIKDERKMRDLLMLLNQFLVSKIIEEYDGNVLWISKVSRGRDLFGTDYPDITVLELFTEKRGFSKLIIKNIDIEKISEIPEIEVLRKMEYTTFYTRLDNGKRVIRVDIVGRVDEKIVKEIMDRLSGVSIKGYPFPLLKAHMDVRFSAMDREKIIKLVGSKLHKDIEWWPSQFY
Nature of the data set: EMSA; with SSB: NurA binding not significantly influenced; EMSA: 5 pmol fluorescent DNA in 10 ul, 20 mM HEPES/NaOH pH 7.5, 35 mM beta-mercaptoethanol, 500 mM NaCl, 50 mM MgCl2 (so in the source), 10 min room temperature, 5% PAGE in 0.5x TBE. The note with it: protein: recombinant; chain copies: 2; single strand.

In data set [5] the target is T1, SSB. Nature of the data set: EMSA; 2.5 pmol NurA/HerA, 1.5 pmol SSB, increasing ATP: no effect of ATP on stimulation; EMSA: 5 pmol fluorescent DNA in 10 ul, 20 mM HEPES/NaOH pH 7.5, 35 mM beta-mercaptoethanol, 500 mM NaCl, 50 mM MgCl2 (so in the source), 10 min room temperature, 5% PAGE in 0.5x TBE. The note with it: protein: recombinant; chain copies: 2; single strand.

Here are results for five molecules from PMC8910471, “The Finely Coordinated Action of SSB and NurA/HerA Complex Strictly Regulates the DNA End Resection Process in Saccharolobus solfataricus”.

B1: 70 leadCy5 (70 mer) (ssDNA)
DNA: CGTGACTTGATGTTAACCCTAACCCTAAGAATTCGGCTTAAGTGAGTGTGAGGATATCATGTACGATAGC
As to B1, the binding result in data set [1] (chain copies: 2, single strand) is recorded as “binds”.

B2: Forked substrate (70 lagFork/70 leadCy5) (dsDNA)
DNA 1: TTTTTTTTTTTTTTTTTTTTCACACTCACTTAAGCCGAATTCTTAGGGTTAGGGTTAACATCAAGTCACG
DNA 2: B1 DNA
As for B2, the binding result in data set [2] was “binds”; in data set [1] (fork 1:2, 50 bp duplex, unpaired 5' T20 of strand 1 and 3' 20 nt of strand 2), “binds”.
Regarding GCTATCGTACATGATATCCTC (ssDNA) [21 merTAMRA], the binding result in data set [1] (chain copies: 2, single strand) was “binds”.
In the case of GTTTTCCCAGTCACGAC (ssDNA) [17 merTAMRA], the binding result in data set [3], in data set [4] and in data set [5] was “binds” throughout.
Turning to GCCGTGATCACCAATGCAGATTGACGAACCTTTGCCCACGT (ssDNA) [40 merCy3], the binding result in data set [1] (chain copies: 2, single strand) was “binds”.
